Results from patent US20260151494A1 (ARO BIOTHERAPEUTICS, published 2026).
Residue numbers refer to the chain shown, from its start.

B1: CD71-binding FN3 domain of SEQ ID NO: 466 (designed binder)
chain: MLPAPKNLVVSRVTEDSARLSWTAPDAAFDSFYIAYAEPRPDGEAIWLLVPGSERSYDLTGLKPGTEYSVLIHGVKGGLLSSPLSADFTT
B2: CD71-binding FN3 domain of SEQ ID NO: 540 (designed binder)
chain: B1 chain with W47I, L49V, S85D, D87G
B3: CD71-binding FN3 domain of SEQ ID NO: 495 (designed binder)
chain: MLPAPKNLVVSRVTEDSARLSWTAPDAAFDSFFINYREDKWIGEAIVLTVPGSERSYDLTGLKPGTEYSVPIDGVKGGAASPPLSAIFTT
B4: CD71-binding FN3 domain of SEQ ID NO: 468 (designed binder)
chain: MLPAPKNLVVSRVTEDSARLSWTAPDAAFDSFLIQYDEEGVWGEAIVLTVPGSERSYDLTGLKPGTEYSVGIGGVKGGWSSVPLSAIFTT
B5: CD71-binding FN3 domain of SEQ ID NO: 524 (designed binder)
chain: MLPAPKNLVVSRVTEDSARLSWTAPDAAFDSFFIGYLEPQPPGEAIHLWVPGSERSYDLTGLKPGTEYNVTIQGVKGGFPSMPLSAIFTT
B6: CD71-binding FN3 domain of SEQ ID NO: 543 (designed binder)
chain: B5 chain with H47S, W49Y, M82I, S85V, I87V
B7: CD71-binding FN3 domain of SEQ ID NO: 526 (designed binder)
chain: B5 chain with H47S, W49I, M82D, S85I
B8: CD71-binding FN3 domain of SEQ ID NO: 530 (designed binder)
chain: B5 chain with H47D, W49L, M82E, S85F, I87H
B9: CD71-binding FN3 domain of SEQ ID NO: 544 (designed binder)
chain: B5 chain with H47A, W49L, M82H, I87S
B10: CD71-binding FN3 domain of SEQ ID NO: 541 (designed binder)
chain: B5 chain with H47D, S85D, I87Y
B11: CD71-binding FN3 domain of SEQ ID NO: 539 (designed binder)
chain: B5 chain with W49F, M82D, S85H, I87A
B12: CD71-binding FN3 domain of SEQ ID NO: 534 (designed binder)
chain: B5 chain with W49L, M82G, S85Q, I87S
B13: CD71-binding FN3 domain of SEQ ID NO: 528 (designed binder)
chain: B5 chain with H47T, W49L, M82I, S85I
B14: CD71-binding FN3 domain of SEQ ID NO: 525 (designed binder)
chain: B5 chain with H47A, W49Y, M82E, S85V, I87T
B15: CD71-binding FN3 domain of SEQ ID NO: 545 (designed binder)
chain: B5 chain with H47S, W49V, M82N, S85I, I87T
B16: CD71-binding FN3 domain of SEQ ID NO: 533 (designed binder)
chain: B5 chain with H47N, W49F
B17: CD71-binding FN3 domain of SEQ ID NO: 529 (designed binder)
chain: B5 chain with H47D, W49Y, M82L, S85Q, I87H
B18: CD71-binding FN3 domain of SEQ ID NO: 535 (designed binder)
chain: B5 chain with W49Q, M82D, S85V, I87K
B19: CD71-binding FN3 domain of SEQ ID NO: 527 (designed binder)
chain: B5 chain with W49Y, M82E, S85I, I87N
B20: CD71-binding FN3 domain of SEQ ID NO: 542 (designed binder)
chain: B5 chain with H47E, W49F
B21: CD71-binding FN3 domain of SEQ ID NO: 538 (designed binder)
chain: B5 chain with H47D, W49Y, M82H, S85V, I87V
B22: CD71-binding FN3 domain of SEQ ID NO: 455 (designed binder)
chain: MLPAPKNLVVSRVTEDSARLSWTAPDAAFDSFTISYPEEAKHGEAIVLTVPGSERSYDLTGLKPGTEYGVPINGVKGGVSSLPLSAIFTT
B23: CD71-binding FN3 domain of SEQ ID NO: 471 (designed binder)
chain: MLPAPKNLVVSRVTEDSARLSWTAPDAAFDSFTIWYYESPTGGEAIVLTVPGSERSYDLTGLKPGTEYMVFIQGVKGGCFSTPLYAIFTT
B24: CD71-binding FN3 domain of SEQ ID NO: 480 (designed binder)
chain: MLPAPKNLVVSRVTEDSARLSWTAPDAAFDSFEIDYAEDIREGEAIALVVPGSERSYDLTGLKPGTEYWVSIGGVKGGTWSRPLFAPFTT
B25: CD71-binding FN3 domain of SEQ ID NO: 477 (designed binder)
chain: MLPAPKNLVVSRVTEDSARLSWTAPDAAFDSFEIAYFETCRTGEAIVLTVPGSERSYDLTGLKPGTEYGVSIYGVKGGAHSGPLSAIFTT
B26: CD71-binding FN3 domain of SEQ ID NO: 458 (designed binder)
chain: MLPAPKNLVVSRVTEDSARLSWTAPDAAFDSFLDLLPSNWDIAGEAIVLTVPGSERSYDLTGLKPGTEYHVNILGVKGGKESLPLVANFTT
B27: CD71-binding FN3 domain of SEQ ID NO: 509 (designed binder)
chain: MLPAPKNLVVSRVTEDSARLSWTAPDAAFDSFEIGYWENAYKGEAIVLTVPGSERSYDLTGLKPGTEYEVFIGGVKGGVWSVPLSAIFTT
B28: CD71-binding FN3 domain of SEQ ID NO: 503 (designed binder)
chain: MLPAPKNLVVSRVTEDSARLSWTAPDAAFDSFEISYFETSWHGEAIVLTVLGSERSYDLTGLKPGTEYRVYIGGVKGGSWSQPLSAIFTT
B29: CD71-binding FN3 domain of SEQ ID NO: 537 (designed binder)
chain: B27 chain with W37F, A40L, K42L, E69W, F71Q, V79N, V82A
B30: CD71-binding FN3 domain of SEQ ID NO: 531 (designed binder)
chain: B28 chain with S35G, T39Y, W41Y, H42Y, L51P, S79G, Q82R
B31: CD71-binding FN3 domain of SEQ ID NO: 506 (designed binder)
chain: B27 chain with E69V, F88S
B32: CD71-binding FN3 domain of SEQ ID NO: 484 (designed binder)
chain: MLPAPKNLVVSRVTEDSARLSWTAPDAAFDSFEIAYQELSLWGEAIVLTVPGSERSYDLTGLKPGTEYYVHIGGVKGGIWSSPLSAISTT
B33: CD71-binding FN3 domain of SEQ ID NO: 489 (designed binder)
chain: MLAPKNLVVSRVTEDSARLSWTAPDAAFDSFFIGYLEPQPPGEAISLLVPGSERSYDLTGLKPGTEYNVTIQGVKGGFPSSPLLAGFTT
B34: CD71-binding FN3 domain of SEQ ID NO: 463 (designed binder)
chain: MLPAPKNLVVSRVTEDSARLSWTAPDAAFDSFLILYIEQDHRGEAIVLTVPGSERSYDLTGLKPGTEYWVHITGVKGGYYSAPLSAIFTT
B35: CD71-binding FN3 domain of SEQ ID NO: 488 (designed binder)
chain: MLPAPKNLVVSRVTEDSARLSWTAPDAAFDSFIIQYGEYLRWGEAIVLTVPGSERSYDLTGLKPGTEYQVEIYGVKGGPLSKPLSAIFTT

Biological target: T1, human CD71 extracellular domain (human, UniProt P02786 89-760, biotinylated)
T1 construct: also called hCD71; CD71-ECD
T1 sequence (P02786 89-760): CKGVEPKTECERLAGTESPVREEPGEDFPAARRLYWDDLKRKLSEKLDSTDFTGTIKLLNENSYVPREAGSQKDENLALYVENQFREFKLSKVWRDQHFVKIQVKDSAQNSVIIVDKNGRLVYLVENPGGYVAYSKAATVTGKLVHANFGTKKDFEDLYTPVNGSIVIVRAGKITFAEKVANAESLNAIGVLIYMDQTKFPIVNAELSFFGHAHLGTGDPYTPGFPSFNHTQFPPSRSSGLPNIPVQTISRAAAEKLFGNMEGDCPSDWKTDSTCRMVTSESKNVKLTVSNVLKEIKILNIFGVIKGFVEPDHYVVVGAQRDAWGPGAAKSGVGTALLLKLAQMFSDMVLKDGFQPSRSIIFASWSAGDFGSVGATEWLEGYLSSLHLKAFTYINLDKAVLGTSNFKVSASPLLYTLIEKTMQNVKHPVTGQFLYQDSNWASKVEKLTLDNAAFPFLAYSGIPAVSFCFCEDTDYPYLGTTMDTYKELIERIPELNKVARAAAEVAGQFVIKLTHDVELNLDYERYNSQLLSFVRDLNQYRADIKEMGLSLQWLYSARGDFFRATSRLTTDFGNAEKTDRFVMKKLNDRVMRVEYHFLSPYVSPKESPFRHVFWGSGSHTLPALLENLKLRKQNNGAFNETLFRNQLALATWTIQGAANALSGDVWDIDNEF
Assay: primary ELISA; further: test concentration or dose not given here

Row | Binder | RLU [RLU]
1 | B1 | 1.08e+06
2 | B2 | 3.79e+06
3 | B3 | 1.14e+06
4 | B4 | 1.05e+06
5 | B5 | 3.22e+06
6 | B6 | 5.29e+06
7 | B7 | 3.7e+06
8 | B8 | 4.61e+06
9 | B9 | 4.04e+06
10 | B10 | 1.79e+06
11 | B11 | 4.94e+06
12 | B12 | 5.2e+06
13 | B13 | 5.18e+06
14 | B14 | 6.02e+06
15 | B15 | 4.22e+06
16 | B16 | 3.18e+06
17 | B17 | 4.13e+06
18 | B18 | 4.29e+06

Row | Binder | RLU [RLU]
19 | B19 | 6.59e+06
20 | B20 | 2.13e+06
21 | B21 | 5.57e+06
22 | B22 | 1.56e+06
23 | B23 | 1.65e+06
24 | B24 | 1.66e+06
25 | B25 | 1.88e+06
26 | B26 | 3.44e+06
27 | B27 | 1.74e+06
28 | B28 | 2.35e+06
29 | B29 | 2.42e+06
30 | B30 | 1.6e+06
31 | B31 | 1.64e+06
32 | B32 | 1.47e+06
33 | B33 | 2.81e+06
34 | B34 | 5.62e+06
35 | B35 | 3.18e+06

Biological target: T2, apical domain of human CD71 (human, UniProt P02786 189-383, limits assumed)
T2 construct: domain: apical domain; Screen 4 panned on human apical domains, the ELISA text says only 'apical domain'
T2 sequence (P02786 189-383 limits assumed): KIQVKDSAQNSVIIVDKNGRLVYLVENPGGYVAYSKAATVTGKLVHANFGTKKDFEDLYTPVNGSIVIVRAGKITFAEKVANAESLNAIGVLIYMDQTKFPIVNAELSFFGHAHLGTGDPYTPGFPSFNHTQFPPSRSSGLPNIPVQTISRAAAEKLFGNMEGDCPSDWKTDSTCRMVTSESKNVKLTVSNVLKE
Assay: primary ELISA; further: test concentration or dose not given here

Row | Binder | RLU [RLU]
36 | B1 | 4.3e+06
37 | B2 | 5.85e+06
38 | B3 | 4.03e+06
39 | B4 | 3.58e+06
40 | B5 | 3.95e+06
41 | B6 | 4.65e+06
42 | B7 | 5.37e+06
43 | B8 | 4.48e+06
44 | B9 | 4.07e+06
45 | B10 | 3.42e+06
46 | B11 | 6.08e+06
47 | B12 | 5.76e+06
48 | B13 | 5.58e+06
49 | B14 | 5.93e+06
50 | B15 | 4.22e+06
51 | B16 | 5.25e+06
52 | B17 | 3.24e+06
53 | B18 | 3.38e+06

Row | Binder | RLU [RLU]
54 | B19 | 6.4e+06
55 | B20 | 3e+06
56 | B21 | 4.93e+06
57 | B22 | 4.83e+06
58 | B23 | 3.88e+06
59 | B24 | 4.27e+06
60 | B25 | 2.4e+06
61 | B26 | 4.64e+06
62 | B27 | 4.6e+06
63 | B28 | 2.26e+06
64 | B29 | 5.14e+06
65 | B30 | 4.16e+06
66 | B31 | 4.74e+06
67 | B32 | 4.69e+06
68 | B33 | 4.06e+06
69 | B34 | 5.51e+06
70 | B35 | 6.14e+06

Biological target: T1, human CD71 extracellular domain
Assay: primary ELISA, RLU over HSA

Row | Binder | hCD71:HSA
71 | B1 | 70
72 | B2 | 198
73 | B3 | 142
74 | B4 | 71
75 | B5 | 190
76 | B6 | 207
77 | B7 | 497
78 | B8 | 289
79 | B9 | 241
80 | B10 | 73
81 | B11 | 167
82 | B12 | 187
83 | B13 | 169
84 | B14 | 49
85 | B15 | 327
86 | B16 | 146
87 | B17 | 466
88 | B18 | 362

Row | Binder | hCD71:HSA
89 | B19 | 15
90 | B20 | 169
91 | B21 | 185
92 | B22 | 55
93 | B23 | 42
94 | B24 | 70
95 | B25 | 289
96 | B26 | 51
97 | B27 | 134
98 | B28 | 150
99 | B29 | 23
100 | B30 | 226
101 | B31 | 39
102 | B32 | 35
103 | B33 | 235
104 | B34 | 91
105 | B35 | 53

Biological target: T2, apical domain of human CD71
Assay: primary ELISA, RLU over HSA

Row | Binder | Apical domain:HSA
106 | B1 | 279
107 | B2 | 306
108 | B3 | 504
109 | B4 | 24
110 | B5 | 232
111 | B6 | 182
112 | B7 | 721
113 | B8 | 281
114 | B9 | 243
115 | B10 | 140
116 | B11 | 205
117 | B12 | 207
118 | B13 | 182
119 | B14 | 48
120 | B15 | 327
121 | B16 | 241
122 | B17 | 366
123 | B18 | 285

Row | Binder | Apical domain:HSA
124 | B19 | 15
125 | B20 | 237
126 | B21 | 164
127 | B22 | 171
128 | B23 | 98
129 | B24 | 181
130 | B25 | 370
131 | B26 | 69
132 | B27 | 353
133 | B28 | 145
134 | B29 | 50
135 | B30 | 586
136 | B31 | 112
137 | B32 | 113
138 | B33 | 340
139 | B34 | 89
140 | B35 | 103
